Earlier results in patent US10669306B2, “Solid supports for use in solid-phase peptide synthesis, kits, and related methods” (UNIVERSITY OF WASHINGTON, priority 2016, dated 2020).

Biological target: integrin αvβ3 receptor (Homo sapiens, UniProt P05106+P06756)
Settings: cyclic form; Prante, O., et al. Bioconjug. Chem. 2007, 18, 254

Chain of integrin αvβ3 receptor (P06756 31-889 limits assumed): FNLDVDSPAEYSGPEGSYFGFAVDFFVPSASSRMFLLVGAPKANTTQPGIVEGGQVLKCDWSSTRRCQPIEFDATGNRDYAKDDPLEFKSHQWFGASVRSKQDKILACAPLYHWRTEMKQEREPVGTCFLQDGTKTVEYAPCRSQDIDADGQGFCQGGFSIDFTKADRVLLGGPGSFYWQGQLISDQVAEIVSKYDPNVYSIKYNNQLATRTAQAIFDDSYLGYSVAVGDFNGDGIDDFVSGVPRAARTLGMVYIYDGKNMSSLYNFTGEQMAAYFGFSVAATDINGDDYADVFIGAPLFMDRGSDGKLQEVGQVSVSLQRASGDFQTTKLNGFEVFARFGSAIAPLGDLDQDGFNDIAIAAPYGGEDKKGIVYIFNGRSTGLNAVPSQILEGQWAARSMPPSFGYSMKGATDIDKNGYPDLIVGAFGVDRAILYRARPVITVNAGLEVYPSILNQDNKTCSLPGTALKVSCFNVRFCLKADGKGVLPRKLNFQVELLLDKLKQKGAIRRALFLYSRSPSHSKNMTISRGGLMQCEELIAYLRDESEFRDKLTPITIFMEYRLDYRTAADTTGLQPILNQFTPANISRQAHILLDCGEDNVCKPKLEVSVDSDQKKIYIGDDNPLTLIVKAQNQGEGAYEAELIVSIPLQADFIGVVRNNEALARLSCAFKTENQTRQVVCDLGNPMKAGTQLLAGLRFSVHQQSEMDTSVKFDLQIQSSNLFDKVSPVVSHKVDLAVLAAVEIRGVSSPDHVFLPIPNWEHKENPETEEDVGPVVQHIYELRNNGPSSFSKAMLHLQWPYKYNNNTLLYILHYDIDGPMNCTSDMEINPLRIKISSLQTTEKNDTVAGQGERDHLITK
Chain of integrin αvβ3 receptor (P06756 891-1048 partner limits assumed): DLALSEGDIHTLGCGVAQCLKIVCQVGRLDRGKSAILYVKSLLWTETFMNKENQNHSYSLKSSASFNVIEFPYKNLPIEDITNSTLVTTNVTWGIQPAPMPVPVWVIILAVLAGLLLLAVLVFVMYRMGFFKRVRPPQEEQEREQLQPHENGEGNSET
Chain of integrin αvβ3 receptor (P05106 27-788): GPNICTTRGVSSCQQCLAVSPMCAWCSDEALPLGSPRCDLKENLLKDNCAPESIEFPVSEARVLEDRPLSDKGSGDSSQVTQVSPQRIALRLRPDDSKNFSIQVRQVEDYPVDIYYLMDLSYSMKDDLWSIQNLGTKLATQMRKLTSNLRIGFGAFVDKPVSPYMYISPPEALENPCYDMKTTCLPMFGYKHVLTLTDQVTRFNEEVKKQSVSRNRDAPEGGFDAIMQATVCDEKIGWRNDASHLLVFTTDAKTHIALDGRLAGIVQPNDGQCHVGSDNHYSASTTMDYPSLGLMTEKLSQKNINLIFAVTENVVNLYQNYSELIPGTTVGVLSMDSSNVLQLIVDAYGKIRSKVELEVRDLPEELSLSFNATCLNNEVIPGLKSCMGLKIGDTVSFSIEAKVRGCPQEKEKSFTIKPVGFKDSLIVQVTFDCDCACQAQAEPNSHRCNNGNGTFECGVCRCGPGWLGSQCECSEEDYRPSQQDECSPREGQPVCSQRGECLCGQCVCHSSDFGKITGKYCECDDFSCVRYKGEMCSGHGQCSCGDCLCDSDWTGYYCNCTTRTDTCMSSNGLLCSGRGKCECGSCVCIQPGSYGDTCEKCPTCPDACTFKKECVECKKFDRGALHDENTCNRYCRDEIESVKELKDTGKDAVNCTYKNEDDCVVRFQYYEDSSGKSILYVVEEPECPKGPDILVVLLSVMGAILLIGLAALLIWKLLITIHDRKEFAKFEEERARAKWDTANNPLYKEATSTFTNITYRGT

binding affinity for integrin αvβ3 receptor: nanomolar affinity
Substance: CRGD(D-F): Cyclic CRGD(D)-F, a commercially available integrin binding peptide (ANASPEC)
